Source: publication PMC3711080 (Bioconjugate chemistry, 2011)

Legend:
[1] = biological target: chemokine receptor 4 (CXCR4) (human (endogenous in MDAMB231)) (UniProt P61073); experiment: flow cytometry on cells
CXCR4 = CXCR4 (Homo sapiens, UniProt P61073); experiment: Competition binding against 250 nM of peptide 3, flow cytometry; details: ratio of KD values, higher affinity of 1
CXCR4, sequence (P61073 whole entry): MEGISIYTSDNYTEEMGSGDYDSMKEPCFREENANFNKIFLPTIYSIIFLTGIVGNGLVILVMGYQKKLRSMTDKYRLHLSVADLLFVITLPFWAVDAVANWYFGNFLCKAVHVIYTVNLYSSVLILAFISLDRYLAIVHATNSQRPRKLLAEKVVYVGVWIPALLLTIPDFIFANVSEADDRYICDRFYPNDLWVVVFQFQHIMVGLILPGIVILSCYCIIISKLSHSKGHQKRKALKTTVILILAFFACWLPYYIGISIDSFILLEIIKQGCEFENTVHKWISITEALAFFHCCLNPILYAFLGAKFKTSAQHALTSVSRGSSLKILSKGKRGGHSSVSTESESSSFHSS

chemokine receptor 4 (CXCR4) (human (endogenous in MDAMB231)), sequence (P61073 whole entry): as above

Row | Substance | Kd [1] | MFIR (mean fluorescence intensity ratio), MDAMB231^CXCR4+ cells [1] | receptor affinity relative to derivatives 3 and 4 (CXCR4)
1 | Ac-TZ14011 labeled with the MSAP reagent (peptide 3) | 187 nM | 45.3 | 
2 | Ac-TZ14011 [compound 1] |  |  | approximately 20 times
3 | Ac-TZ14011 labeled with the MSAP reagent, indium-labeled (peptide 4) | 177 nM | 56.7 | 
